Data published in a protein production outcome set (Wang et al. 2014).

Assay: label from the status in PepcDB records

Row | Sequence | protein production
1 | MSIRNPNSTLLYRAHSRPPVKLCAPPRSLLPSRRHFSAPRAVVSYPGIRFGFTSPEVLLNRSVVAFAASHEDSGESGVEVGKEKSDIDVEDDTSKEAWKQTLESFKEQVSKMQSVSSEAYSVNSQKAMTVLKETSEQLRIQAEKAKEELGTKAKVVSEEGREYILKAAEESPSDVKEIVEAFASTEDLKNVSRANDFHVGIPYGLLLLVGGFINFMVSGSIPAIRFGVILGGALFALSLASLKSHRKGESSTKFLKGQMAIVAIIFLRELRLLLSQKSTFLGFFTTLTSGGVLGFYLYKMVVKREKGPTLEDGGEDESSDGFVRSEG | failed
2 | MTDDVDDGWAASAAAWIIEQGEDGDYGRRFVLDAPMRARIEGRGFRNALDVGCGEGRFCRIMQRAGIRTTGIDPTEALLARARELDPRGDYRLGRAETMDIDACFDLVVSYLSLIDIPDLGTAIAKMVGALRPGGTLLIANLTSFNTAGQPDGWARDRKGEMRFAIDHYMDERPIWLSWRGIRLQNWHRPLGTYMTLLLDHGLQLRLFVEPEPTSGDPRRNDLHRRVPYFHMMEWQKPA | failed
3 | MITDCCPGFGSVAKYIAVSMLEASFDVASMAKTSTKVFILEVMGRHAGWIAAAGGLASNEDHEVPIIILFPEVTFDQEKFLAKTDHYVKEYGYCTVVVSEGVKGTDGKFLSDQGLRDAFGHAQLGGVAPVIANIVKNGLGLEHHHHHH | not failed
4 | MSSFVLDKEAFVRRVKRLYTEWRAPSIGHDDALRNLDCIMSIVGVEEDVMYSKSMALQLWLLGYELTDTISVFCSDAVYFLTSKKKIEFLKQTQNITEEGFPEINLLVRDRTDKDQGNFEKLIKALQNSKKGKRLGVFAKDAYPGEFSEAWKKSLTASKFEHVDISTIIAYLMCPKDESEINNIRKASLVSMDIFNKYLKDEIMDIIDSDRKVKHNKLSDGCEAAIGEKKYTSGLDPRLLDMAYPPIIQSGGAYSLKFSAVADKNPLHFGVIVCSLGARYKSYCSNISRTFLVNPTEAMQENYTFLVSV | failed
5 | MREALRSLLVALQFLTRLPVRLSAMPTPEQFGRAVLCYPLVGVLIGVVLYAAARSLDGTPPLLQAALLLSLWVALSGALHLDGLADMADAWVGGLGDRERTLAIMKDPRSGPVAVVVLVLVLLLKFSALAALLGQGEAGLLPLAPWLARSSLPLLFLTTPYARPGGLGQAIAEHLPARSLPWVLGVSFGLALAFGLAGLLALLVTLMLFAWLRSRFLARLGGTTGDTAGALVELTECAVLVALAL | failed
6 | MHYSYLEPGLHAELAAITPDEAVAHLRNHLGNLLLDPAVTAAYINRLGVLTPEETTPSTRAWLTYLLVRYCDLLPLDLAAQRILAQVTGNAAPHLRDLERCAIPDPIERKLERLGAGEDSERNRAMLLALLHEYPYSPAIMERLMTVELALDIPVGGEWLPSVRPPAGLLRPLHERLFIHAMMQGDTERALQHAAACVPDNPSPHLLNHLAELHARLGDTQQALNLYGASLEADPLQHPVRLRMEALAKPPRAHADALHHRIAICLYSFNKAELLERTLSSLAASQTGEAHILVLLNGCTDDSATRVAAVNERLFNGRLEVIDMPINIGAPAARNWLLAKQTVREADFVAFLDDDVDVPAAWLPRLVGNLEEHPGAGVAGTRVRNPGDVPRLQYLYRNISVARPGLIRLSLDTPTLHHDTGFYDFTRSTTSVMGCCHVFTRRALDEVPAFDLRFSPSQMDDIAHDIDLALAGFDVLYTGDVVCVHHQMSGLGRANATDWKRFGNVAGNDVKFYYRFADRLDALGRLNNLGFMPDMPPALEHHHHHH | not failed
7 | AQDLYQNLESKVAQKTREVEEQNLRLKTLYDMTSFLHQQRALDETCQGFIRRLMQLTGADAANARLVDPERGKLDQIAQQGLPAEMALNEECIPDDACHCGEAVQQPFAVLRHIGELEGEEIRHCRKAGFASIAVFHIRNQREDVGIFTLYFRQKRVLSMAEQMLIETLGQHLGVAIEN | failed
8 | MDKRRVRAIKTFGAAMETYLAHTRWADSTRAVRKHIIDRDILPVFQNRLLTEIQAEDLRILCNKVKERGAPATAVQIRDIVKQVYVYAIAHGEKVVNPADSVGPSSIALEHHHHHH | not failed
9 | MKNRFAMMLMALLPVLVACQAKDGSADTVQSAVPAPSAPPSSSTATTTPTTPPPESARPVEASRVPSGPKPVAGTDYVVIQDGQQFQPVSGKVEVVEVFGYICPACFQFQPQIALWKAGLASDVNFVYVPAVFGGPWDDYARAFYAAETLNLQEKTHQQLYKAIHVDRTLKGERGRDTVQDIANFYAKFGVNPEQFVNTMSSFGISAKVNRAKQFAKHSQVTGTPSLIINGKYLVKGRTYDDMLRIADHLIEGERKVLGK | failed
10 | SCDSIREDLPRCELWLEFVFDYNMEYADAFNPQVKSVDVLVFDSDDKLLFTKSVKVAALVGGNRMSLTDELDFGSYKVLTVGSLSDRFRLSDNAGNKLVPGTTTLQQVIVSLKRETGGVNFEFQHLYFGEVVEVDHLPSNTNHKIYPVNLIRDTNRFNLALMGYEENKVDGTQYTFEIQAPENAVYSWENEPTGQGPITYVPYYTGPGEISDVVMSARLNTMRLLNRSGWDYKFIIRDANTEAEVWSYNLMTLLSIARPVSRYDGTELPFQEYLDRQSEWNLVFTVVEKNGGGFLQIGIVVGTWIHWLHGMEV | not failed
11 | MEEMNVFLTMIYRELKRFIRSPSRIIGSILNPLLWLIFFGKGWSGVFNFPMATRIFGGVDYMTYLVPGVVVMTVFDMSFLQGLTIIWDKQFGFMKEILVAPASRVESILGRITGGAIVAMIQGFIMVALSFIVANLKVSGVIPTLILAFFVGVAIAGLGVAVALKMSSMEGFQIIVMMLMLPMMFLSGAFYPVRTMPNWMQWLAKINPLTYAVDGARYYLAGVTPTFGIMQDWIVLILLALVFAGFAGLEFRKAYLS | failed
12 | MMRFVIGFLLSILASISLVSPANAAVIDHDKVVGFEEVTPTTITQKVAKRFQPYLTVSTGCVPFPAVDADGNTSGGLAPTGPHNGGCSSHIGQVYSRSTWHNGVWAIMYAWYFPKDSPSPGLGHRHDWEGIVVWVDNPANPSPQLLSIAYSQHGNFYNVAPTDRNTREQRPLIRYSHAWPLNHSLWIHDQVGGTQPLIGWDDLTPAARHALNTTDFGAANVPFNDHNFINNLRKAWYRLEHHHHHH | failed
13 | MAFIAVHDGLTGLHNRTFLTDHFDTLIKGAHRRRERLAVVQLDLDRFKQINDTLGHAAGDYVLVVTAQRMRDSCRASDLCARLGGDEFVMILNGAGSTEDINMLARRILAHINEPIVFQGTTILPGASGGIAVYPIDADNAQDLLVHADLALYSAKKLGGGNFSFFSEELRRELDYRKQLEHDIKVAISERAFQVYFQPQVSLTDGTISGIEALVRWNHHERGMISPGEFIPVAEKCGFMPEIGRIVIGKAINEAAEWNRAGIAFGRLAVNVSGTELREHDFDAFLFETLEKAGLPPQKLSLEIVESVILDDEKTGIAAKLRHIRAAGIHLELDDFGTGYASLSHVNPNEIDRLKIDRRFVQNIHENGDNSKIVRAITELARGLGISIVAEGAETEAELDSLMAIGCDQVQGYSIAFPMPQDKALEWLTARMPKKAKLRVLQGSLA | failed
14 | LDTLRRYHRQTLQDLPMGVCSLAKDQEVLMWNRAIEELTGVGAQKVVGSRLSALPEPWKGLLERFIDAPDEHLHKQRLVYDGHTRWLNLHKAAIEEPLAPGNSGLVLLVEDLTETQLLEDKLVHSERLASIGRLAAGVAHEIGNPITGI | not failed
15 | MPKVNLYATFRDLTGKSQLELPGATVGEVLENLVRAYPALKEELFEGEGLAERVSVFLEGRDVRYLQGLSTPLSPGATLDLFPPVAGGGFERTFGAFPPWLLERYLEEWGGTREGEGVYRLPGAVVRFREVEPLKVGSLSIPQLRVEVEGEEAERWFERIAFAASRGGG | not failed
16 | MKAKIYYNGNIITMEDSICGDAILIKDKIIKKIGTKEEVFALKNKDTEIIDLQGKTLMPSFIDSHSHLIAFATTLKLVPLEDATSFKDIVKKIQDFKESLEHHHHHH | failed
17 | MADSKKITFEMNESVLTAQFSRLDEMASVVERRFSELKMTIEDVGNADPGSKITESLGGLQSGLGTISSAFGQLGSSSEAITSGFGTAVGSVGGITDAFKNLGSSVQNGTLFSSLSTGIGGMSTMLGGVTGGVQGITNLASGFMELKNHLGGLMSSIGGVGGIMGKLTSPMGLVIIGIVALVAAFTYLMTTNESFRNTVMSVVTQVAQLFGQLVASLMPIIMQIITAVMQIGAALMPIVMQFISFFAQLLAQLMPFINMLIAMLMPVIMQIVQVVMSLVSALLPSIMTVIQGIMSVIQFLIPIIMKIATVVVQIVVTIISYISKIMPIVMMIIGVIISIITTIISYIVVIATTISNVIGKIISFIASVITSIIGIVQPIIGFITNIFSSIVTVIGAAFQMVFAVASKIWNAIMATISGIIDGIKSVITGISTTVSSVFNGVKRIITGVFDGIKGAWGGLTEFVGTIFDGVSNAIQTVVDNVKGFVNVVIRGINSAISLINKIPGVEIGKIPQLISGTTNFQGGFARMNEGGRGEMVVLPSGSQVIPHDATMKYARESARGNKSMLYTNQGTDLARVENLLERLLQKNPVIKMDDKVVSEVVSRNQANSFDQYNYTMGGAAYS | failed
18 | MLPFANYYISSPSVSEKNAINNNVNKRRKKKRAMMVYGGGGGGDDLAVVKAAAWAWYLRKEGKPIMREFDVTRAQRIPRPSRYKIEATKNMILSENRVLAENRVSSTKSPLWYTNYQFRGDQETYYSRLLDTYETKNISKRLNIDDSSFSTSLSSVLKHNGDDHHNHNRNDDYGFDDHGLLKKRNGSDSNTTTRSKTNNDKSYNGGFMKKVSKRSLWKGMIVMGPGSTVCGRSDDVASQAGRRTVKVAVAAEALVRSAASGSGKTQSGHC | failed
19 | MTRSERKPLLMLMVNMFVVMMGIGLVIPILPYYIEAFGASSVELGLLIAIFSFMQFLLAPFWGRLSDKVGRKPLIAVGMFGFAVAEFIFAFATQFWMLFVSRILAGAFGSAVMPAAMAYVSDRTSEEKRGHGMGLLGASMALGIVVGPGIGGWLAEFSLATPFLFAGFAASFAAIFSLLWLPESLPLEKRKTEVEPVNQFVQMWQAVRSPIGFLLFLVFGLSFGLANFQTIFGIFALHRFHYNPSEVGFIMVLTGIVGAIAQGSLVGRLTERYGEEKVVLGSLSLSGIGFLIMMLAFNYWTVIATTCLFFLGNSILRPAVQSFLSKMAGDQQGMIMGLNNSILSLGNVVGALLAGLLFEWNMFLPYTVGAFVMFASLGATFRWLSKRASQGKHPEKSSP | failed
20 | MSYLDNVRVFVRVVELGTLSAAGRDQRVTPAVASNRIKELERHMGVRLFNRTTRKLTPTEHGRVFYEGAVKILEAVNEAESAIADLSRNPKGALKITAPLGIGRRLIAPGIPEFHDRYPDIEVRLRLSDHNVDILAEGVDIAFKLGILEDSNLRMRGIMNCDRVLCGSPRYFERRGIPSSPDDLLSHSHDCLLLRYPGSKEYYWTLQTPDGVRKFEVGGPYDSDDGDVLTQWALDGRGIVNKPLFEVKQHIDEGLLVPVLEETPPLGAQLAAIYPHKRFQDPKVRLMIDFMAERCQRLIGKMLAESAEVQERSSA | failed
21 | MNSLPRPDIGPFADTPEKRWVGVSFGAAAVGYDGVAALQREVGESLLAGIRHLGPPPARMLDLGAGTGHFSGLLVAAFPTAECLALDIAEGMLRFLRSHRPGADGMGLVVGDAEALPLADESVDLIFSNMAFQWCERLDRAISECCRVLRPGGRLAFSTFGEATLAELRMAWRAVDGYTHVNAFATRRSVEQELRAQGFTKIRLDARTLRRGYPSVLALMKELKALGARNLTRNRPRHLLSRHTLERVSEAYGRLPGMASAVTASFEVLTALVEK | failed
